pEC50, pKd: −log10 of the molar value.
What was measured:
[1] = molecular target: DT390-IL-13 single-chain fusion cytotoxin (monomer) (Corynebacterium diphtheriae | not stated); assay: SEC-MALS; SEC-MALS-DLS, Superose 6 Increase 10/300 GL, 4 °C, PBS pH 7.4
[2] = molecular target: extracellular domain of IL-13-RA2 human recombinant receptor protein (human) (UniProt Q14627); assay: ELISA
Sequence of UniProt Q14627 (Q14627 27-343): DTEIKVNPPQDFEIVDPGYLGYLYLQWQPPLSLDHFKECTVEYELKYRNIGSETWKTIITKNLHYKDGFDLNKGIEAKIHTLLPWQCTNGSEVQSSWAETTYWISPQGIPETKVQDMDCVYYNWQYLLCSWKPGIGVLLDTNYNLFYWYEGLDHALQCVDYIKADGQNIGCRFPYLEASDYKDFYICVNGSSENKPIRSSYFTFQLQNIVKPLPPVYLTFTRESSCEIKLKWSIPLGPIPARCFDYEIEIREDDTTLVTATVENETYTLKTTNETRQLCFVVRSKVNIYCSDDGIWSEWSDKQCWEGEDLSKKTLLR

Substance | stoichiometry N [1] | pEC50 [2] | pKd [2]
DT390-IL-13 single-chain fusion cytotoxin (monomer) | 2 | 8.72 | 10.17
DT390-IL-13 single-chain fusion cytotoxin, dimer (complex) |  | 8.19 | 
DT390-IL-13 single-chain fusion cytotoxin, oligomers (complex) |  | 8.17 | 

Source: article PMC9406121
